Measurements published in US20250163167A1 (SYNTHEKINE, published 2025).
Values belong to the binder of their own block, whether it stands above or below them.

Molecular target: T1, human IL-10 receptor (hIL-10R alpha and beta chains) on HEK-Blue IL-10 reporter cells (human, UniProt Q13651 22-578; Q08334 20-325)
T1 sequence 1: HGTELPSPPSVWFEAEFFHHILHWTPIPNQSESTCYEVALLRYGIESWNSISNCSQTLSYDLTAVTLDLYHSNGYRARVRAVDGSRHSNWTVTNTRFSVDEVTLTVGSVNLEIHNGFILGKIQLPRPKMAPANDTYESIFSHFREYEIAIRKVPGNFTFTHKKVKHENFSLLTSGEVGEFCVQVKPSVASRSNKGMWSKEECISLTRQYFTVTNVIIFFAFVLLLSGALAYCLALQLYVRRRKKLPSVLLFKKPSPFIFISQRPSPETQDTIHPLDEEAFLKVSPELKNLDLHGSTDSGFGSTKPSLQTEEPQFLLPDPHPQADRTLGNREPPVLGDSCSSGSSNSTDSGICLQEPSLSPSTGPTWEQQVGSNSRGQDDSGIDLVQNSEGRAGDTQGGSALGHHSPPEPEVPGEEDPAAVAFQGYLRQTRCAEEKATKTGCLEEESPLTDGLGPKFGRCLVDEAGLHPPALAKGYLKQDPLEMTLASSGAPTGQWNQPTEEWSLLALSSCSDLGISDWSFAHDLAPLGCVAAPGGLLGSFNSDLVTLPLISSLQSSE
T1 sequence 2: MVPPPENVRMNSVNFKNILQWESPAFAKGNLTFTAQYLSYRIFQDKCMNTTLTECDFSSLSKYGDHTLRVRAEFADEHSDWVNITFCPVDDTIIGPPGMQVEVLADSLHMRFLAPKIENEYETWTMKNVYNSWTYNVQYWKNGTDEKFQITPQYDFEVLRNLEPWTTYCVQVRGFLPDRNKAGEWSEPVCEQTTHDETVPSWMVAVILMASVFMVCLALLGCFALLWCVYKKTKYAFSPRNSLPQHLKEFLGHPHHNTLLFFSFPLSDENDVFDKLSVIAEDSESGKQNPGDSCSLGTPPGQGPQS
Experiment: cell-based or functional assay

Abs 630 (25 nM): 0.5 Abs 630
Abs 630 (100 nM): 0.41 Abs 630
B1: IL10R binding molecule of SEQ ID NO: 331 (bispecific antibody)
chain: QVQLQESGGGSVQAGGSLRLSCTVSRYTASVNYMGWFRQAPGKEREGVATIFTGAGTTYYANSVKGRFTISRDNAKNTAYLQMNSLKPEDTAIYYCAVDFRGGLLYRPAYEYTYRGQGTQVTVSSGGGSQVQLQESGGGSVQAGGSLRLSCGASGYTYSSYCMGWFRQVPGKEREGVAVIDSDGSTSYADSVKGRFTISKDNGKNTLYLQMNSLKPEDTAMYYCAADLGHYRPPCGVLYLGMDYWGKGTQVTVSSASHHHHHH

Abs 630 (25 nM): 0.47 Abs 630
Abs 630 (100 nM): 0.36 Abs 630
B2: IL10R binding molecule of SEQ ID NO: 332 (bispecific antibody)
chain: QVQLQESGGGSVQAGGSLRLSCTVSRYTASVNYMGWFRQAPGKEREGVATIFTGAGTTYYANSVKGRFTISRDNAKNTAYLQMNSLKPEDTAIYYCAVDFRGGLLYRPAYEYTYRGQGTQVTVSSGGGSQVQLQESGGGSVQAGGSLRLSCAASGYSNCSYDMTWYRQAPGKEREFVSAIHSDGSTRYADSVKGRFFISQDNAKNTVYLQMNSLKPEDTAMYYCKTDPLHCRAHGGSWYSVRANYWGQGTQVTVSSASHHHHHH

Abs 630 (25 nM): 0.61 Abs 630
Abs 630 (100 nM): 0.44 Abs 630
B3: IL10R binding molecule of SEQ ID NO: 324 (bispecific antibody)
chain: QVQLQESGGGSVQAGGSLRLSCAASRYTYNSYCMGWFRQAPGKEREGVATIDSDGMTRYADSVKGRFTISKDNAKNTLYLQMNSLKPEDTAMYYCAADADCTIAAMTTNPLGQGTQVTVSSGGGSQVQLQESGGGSVQAGGSLRLSCGASGYTYSSYCMGWFRQVPGKEREGVAVIDSDGSTSYADSVKGRFTISKDNGKNTLYLQMNSLKPEDTAMYYCAADLGHYRPPCGVLYLGMDYWGKGTQVTVSSASHHHHHH

Abs 630 (25 nM): 1.38 Abs 630
Abs 630 (100 nM): 0.4 Abs 630
B4: IL10R binding molecule of SEQ ID NO: 262 (bispecific antibody)
chain: QVQLQESGGGSVQAGGSLRLSCAASRYLYSIDYMAWFRQSPGKEREPVAVIYTASGATFYPDSVKGRFTISQDNAKMTVYLQMNSLKSEDTAMYYCAAVRKTDSYLFDAQSFTYWGQGTQVTVSSGGGSQVQLQESGGGSVQTGGSLRLSCAASGYTYLRGCMGWFRQAPGKEREGVAVMDVVGDRRSYIDSVKGRFTISRDNAANSVYLQMDNLKPEDTAMYYCTAGPNCVGWRSGLDYWGQGTQVTVSSASHHHHHH

Abs 630 (25 nM): 0.44 Abs 630
Abs 630 (100 nM): 0.34 Abs 630
B5: IL10R binding molecule of SEQ ID NO: 328 (bispecific antibody)
chain: QVQLQESGGGSVQAGGSLRLSCTVSRYTASVNYMGWFRQAPGKEREGVATIFTGAGTTYYANSVKGRFTISRDNAKNTAYLQMNSLKPEDTAIYYCAVDFRGGLLYRPAYEYTYRGQGTQVTVSSGGGSQVQLQESGGGSVQAGGSLRLSCAASGYTYSMYCMGWFRQAPGKEREGVAQINSDGSTSYADSVKGRFTISKDNAKNTLYLQMNSLKPEDTAMYYCAADSRVYGGSWYERLCGPYTYEYNYWGQGTQVTVSSASHHHHHH

Abs 630 (25 nM): 0.46 Abs 630
Abs 630 (100 nM): 0.4 Abs 630
B6: IL10R binding molecule of SEQ ID NO: 321 (bispecific antibody)
chain: QVQLQESGGGSVQAGGSLRLSCAASRYTYNSYCMGWFRQAPGKEREGVATIDSDGMTRYADSVKGRFTISKDNAKNTLYLQMNSLKPEDTAMYYCAADADCTIAAMTTNPLGQGTQVTVSSGGGSQVQLQESGGGSVQAGGSLRLSCAASGYTYSMYCMGWFRQAPGKEREGVAQINSDGSTSYADSVKGRFTISKDNAKNTLYLQMNSLKPEDTAMYYCAADSRVYGGSWYERLCGPYTYEYNYWGQGTQVTVSSASHHHHHH

Abs 630 (25 nM): 0.47 Abs 630
Abs 630 (100 nM): 0.56 Abs 630
B7: IL10R binding molecule of SEQ ID NO: 326 (bispecific antibody)
chain: QVQLQESGGGSVQAGGSLRLSCTVSRYTASVNYMGWFRQAPGKEREGVATIFTGAGTTYYANSVKGRFTISRDNAKNTAYLQMNSLKPEDTAIYYCAVDFRGGLLYRPAYEYTYRGQGTQVTVSSGGGSQVQLQESGGGSVQAGGSLRLSCAASRYLYSIDYMAWFRQSPGKEREPVAVIYTASGATFYPDSVKGRFTISQDNAKMTVYLQMNSLKSEDTAMYYCAAVRKTDSYLFDAQSFTYWGQGTQVTVSSASHHHHHH

Abs 630 (25 nM): 1.43 Abs 630
Abs 630 (100 nM): 1.14 Abs 630
B8: IL10R binding molecule of SEQ ID NO: 334 (bispecific antibody)
chain: QVQLQESGGGSVEAGGSLRLSCAASGYTHSSYCMGWFRQAPGKEREGVAAIDVDGSTTYADSVKGRFTISKDNAKNTLYLQMNSLKPEDTGMYYCAAEFADCSSNYFLPPGAVRYWGQGTQVTVSSGGGSQVQLQESGGGSVQAGGSLRLSCAASRFTYSSYCMGWFRQAPGKEREGVASIDSDGSTSYTDSVKGRFTISKDNAKNTLYLQMNSLKPEDTAMYYCALDLMSTVVPGFCGFLLSAGMDYWGKGTQVTVSSASHHHHHH

Abs 630 (25 nM): 0.45 Abs 630
Abs 630 (100 nM): 0.36 Abs 630
B9: IL10R binding molecule of SEQ ID NO: 330 (bispecific antibody)
chain: QVQLQESGGGSVQAGGSLRLSCTVSRYTASVNYMGWFRQAPGKEREGVATIFTGAGTTYYANSVKGRFTISRDNAKNTAYLQMNSLKPEDTAIYYCAVDFRGGLLYRPAYEYTYRGQGTQVTVSSGGGSQVQLQESGGGSVQAGGSLRLSCTVSGYTYSSNCMGWFRQAPGKEREGVATIYTGGGNTYYADSVKGRFTISQDNAKNTVYLQMNNLKPEDTAMYYCAAEPLSRVYGGSCPTPTFDYWGQGTQVTVSSASHHHHHH

Abs 630 (25 nM): 0.48 Abs 630
Abs 630 (100 nM): 0.39 Abs 630
B10: IL10R binding molecule of SEQ ID NO: 329 (bispecific antibody)
chain: QVQLQESGGGSVQAGGSLRLSCTVSRYTASVNYMGWFRQAPGKEREGVATIFTGAGTTYYANSVKGRFTISRDNAKNTAYLQMNSLKPEDTAIYYCAVDFRGGLLYRPAYEYTYRGQGTQVTVSSGGGSQVQLQESGGGSVQAGGSLRLSCAVSGYAYSTYCMGWFRQAPGKEREGVAAIDSGGSTSYADSVKGRFTISKDNAKNTLYLRMNSLKPEDTAMYYCAAVPPPPDGGSCLFLGPEIKVSKADFRYWGQGTQVTVSSASHHHHHH

Abs 630 (25 nM): 0.52 Abs 630
Abs 630 (100 nM): 0.54 Abs 630
B11: IL10R binding molecule of SEQ ID NO: 327 (bispecific antibody)
chain: QVQLQESGGGSVQAGGSLRLSCTVSRYTASVNYMGWFRQAPGKEREGVATIFTGAGTTYYANSVKGRFTISRDNAKNTAYLQMNSLKPEDTAIYYCAVDFRGGLLYRPAYEYTYRGQGTQVTVSSGGGSQVQLQESGGGSVQAGGSLRLSCAASRFTYSSYCMGWFRQAPGKEREGVASIDSDGSTSYTDSVKGRFTISKDNAKNTLYLQMNSLKPEDTAMYYCALDLMSTVVPGFCGFLLSAGMDYWGKGTQVTVSSASHHHHHH

Abs 630 (25 nM): 0.49 Abs 630
Abs 630 (100 nM): 0.42 Abs 630
B12: IL10R binding molecule of SEQ ID NO: 325 (bispecific antibody)
chain: QVQLQESGGGSVQAGGSLRLSCAASRYTYNSYCMGWFRQAPGKEREGVATIDSDGMTRYADSVKGRFTISKDNAKNTLYLQMNSLKPEDTAMYYCAADADCTIAAMTTNPLGQGTQVTVSSGGGSQVQLQESGGGSVQAGGSLRLSCAASGYSNCSYDMTWYRQAPGKEREFVSAIHSDGSTRYADSVKGRFFISQDNAKNTVYLQMNSLKPEDTAMYYCKTDPLHCRAHGGSWYSVRANYWGQGTQVTVSSASHHHHHH

Abs 630 (25 nM): 0.54 Abs 630
Abs 630 (100 nM): 0.41 Abs 630
B13: IL10R binding molecule of SEQ ID NO: 320 (bispecific antibody)
chain: QVQLQESGGGSVQAGGSLRLSCAASRYTYNSYCMGWFRQAPGKEREGVATIDSDGMTRYADSVKGRFTISKDNAKNTLYLQMNSLKPEDTAMYYCAADADCTIAAMTTNPLGQGTQVTVSSGGGSQVQLQESGGGSVQAGGSLRLSCAASRFTYSSYCMGWFRQAPGKEREGVASIDSDGSTSYTDSVKGRFTISKDNAKNTLYLQMNSLKPEDTAMYYCALDLMSTVVPGFCGFLLSAGMDYWGKGTQVTVSSASHHHHHH

Abs 630 (25 nM): 0.49 Abs 630
Abs 630 (100 nM): 0.54 Abs 630
B14: IL10R binding molecule of SEQ ID NO: 333 (bispecific antibody)
chain: QVQLQESGGGSVEAGGSLRLSCAASGYTHSSYCMGWFRQAPGKEREGVAAIDVDGSTTYADSVKGRFTISKDNAKNTLYLQMNSLKPEDTGMYYCAAEFADCSSNYFLPPGAVRYWGQGTQVTVSSGGGSQVQLQESGGGSVQAGGSLRLSCAASRYLYSIDYMAWFRQSPGKEREPVAVIYTASGATFYPDSVKGRFTISQDNAKMTVYLQMNSLKSEDTAMYYCAAVRKTDSYLFDAQSFTYWGQGTQVTVSSASHHHHHH

Abs 630 (25 nM): 0.64 Abs 630
Abs 630 (100 nM): 0.38 Abs 630
B15: IL10R binding molecule of SEQ ID NO: 323 (bispecific antibody)
chain: QVQLQESGGGSVQAGGSLRLSCAASRYTYNSYCMGWFRQAPGKEREGVATIDSDGMTRYADSVKGRFTISKDNAKNTLYLQMNSLKPEDTAMYYCAADADCTIAAMTTNPLGQGTQVTVSSGGGSQVQLQESGGGSVQAGGSLRLSCTVSGYTYSSNCMGWFRQAPGKEREGVATIYTGGGNTYYADSVKGRFTISQDNAKNTVYLQMNNLKPEDTAMYYCAAEPLSRVYGGSCPTPTFDYWGQGTQVTVSSASHHHHHH

Abs 630 (25 nM): 0.46 Abs 630
Abs 630 (100 nM): 0.41 Abs 630
B16: IL10R binding molecule of SEQ ID NO: 322 (bispecific antibody)
chain: QVQLQESGGGSVQAGGSLRLSCAASRYTYNSYCMGWFRQAPGKEREGVATIDSDGMTRYADSVKGRFTISKDNAKNTLYLQMNSLKPEDTAMYYCAADADCTIAAMTTNPLGQGTQVTVSSGGGSQVQLQESGGGSVQAGGSLRLSCAVSGYAYSTYCMGWFRQAPGKEREGVAAIDSGGSTSYADSVKGRFTISKDNAKNTLYLRMNSLKPEDTAMYYCAAVPPPPDGGSCLFLGPEIKVSKADFRYWGQGTQVTVSSASHHHHHH
